Assay results from US20210061900A1 (ASTUTE MEDICAL, published 2021).

T1: C-C motif chemokine 14 (CCL14), human (human, UniProt Q16627 20-93)
T1 construct: Residues 20-93 are the mature CCL14 it describes, with signal peptide 1-19; also called HCC-1; NCC-2
T1 sequence: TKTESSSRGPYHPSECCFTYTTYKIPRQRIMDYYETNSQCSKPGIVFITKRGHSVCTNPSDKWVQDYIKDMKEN

B1: 2H3/2K1 (antibody, V domains shown)
VH: QEQLKESGGGLVQPGGSLKLSCKASGFAFSSDYMSWVRQAPGKGLEWIGYIDPIFGSTAYASWVNGRFTISSHNAQNTLYLHLNSLTAADTATYFCARDKDYSSGWGGYFNLWGQGTLVTVSS
VL: AIVMTQTPASVEAAVGGTVTIKCQASQSINSYLAWYQQKPGQPPRLLIYEASTLASGVPSRFKGSGSGTQFTLTISDLECADAATYYCQTYYYSVDSSVGSNAFGGGTEVVVK
notes: Rabbit monoclonal IgG expressed in HEK cells; also called 2H3 heavy chain / 2K1 light chain
B2: 3H1/3K1 (antibody, V domains shown)
VH: QSVRESEGGLFKPADTLTLTCTVSGFSLSSDAISWVRQAPGNGLEWIGAIDFGGSAYYASWAKSRSTITRNTNENTVTLKMTSLTAADTATYFCARSPSFGIVDRLDLWGQGTLVTVSS
VL: AVVLTQTASPVSAPVGGTVTIKCQASEDIDSYLAWYQQKPGQPPKLLIYDVFDLSSGVPSRFKGSGSGTEFTLTISDLECADAATYYCQSYYYVLGTTSTDHNSFGGGTEVVVK
notes: Rabbit monoclonal IgG expressed in HEK cells; also called 3H1 heavy chain / 3K1 light chain
B3: 12H2/12K1 (antibody, V domains shown)
VH: QSVRESEGGLFKPADTLTLTCTVSGFSLSSDAISWVRQAPGNGLEWIGAIDFGGSAYYASWAKSRSTITRNTNENTVTLKMTSLTAADTATYFCARSPSFGIVDRLDLWGQGTLVTVSS
VL: AVVLTQTASPVSAPVGGTVTIKCQASEDIDSYLAWYQQKPGQPPKLLIYDVFDLSSGVPSRFKGSGSGTEFTLTISDLECADAATYYCQSYYYVLGTTSTDHNSFGGGTEVVVK
notes: Rabbit monoclonal IgG expressed in HEK cells; also called 12H2 heavy chain / 12K1 light chain
B4: 31H1/31K1 (antibody, V domains shown)
VH: QSVRESEGGLFKPADTLTLTCTVSGFSLSSDAISWVRQAPGNGLEWIGAIDFGGSAYYASWAKSRSTITRNTNENTVTLKMTSLTAADTATYFCARSPSFGIVDRLDLWGQGTLVTVSS
VL: AVVLTQTASPVSAPVGGTVTIKCQASEDIDSYLAWYQQKPGQPPKLLIYDVFDLSSGVPSRFKGSGSGTEFTLTISDLECADAATYYCQSYYYVLGTTSTDHNSFGGGTEVVVK
notes: Rabbit monoclonal IgG expressed in HEK cells; also called 31H1 heavy chain / 31K1 light chain
B5: 25H2/25K1 (antibody, V domains shown)
VH: QSLEESGGDLVKPGASLTLTCTASRFDFSSAYYMCWVRQAPGKGLEWIACIYAGSSGGTYYATWAKGRFTISKTSSTTVTLQLTSLTAADTATYFCAGSTGNSRGSYFNLWGQGTLVTVSS
V domain: AQVLTQTPSPVSAAVGGTVTINCQSSQSVYDNNWLAWYQQKLGQPPKLVIYDASKLASGVPSRFKGSGSGTHFTLTISELQCDDSATYYCQGEYSDIWGFGGGTEVVVK
notes: Rabbit monoclonal IgG expressed in HEK cells; also called 25H2 heavy chain / 25K1 light chain
B6: 10H3/10K1 (antibody, V domains shown)
VH: QSVKESEGGLFKPADTLTLTCTVSGFSLSSYAINWVRQAPGEGLEYIGWISDVGTAYYASWAKSRSTITRNTDENTVTLKMTSLTAADTATYFCAGGDGSYSNYWVSDIWGQGTLVTVSS
VL: AVVLTQTPSLVSAPVGGTVTVKCRASQTINSRLAWYQQKQGQPPKLLIYEASKLASGVPSRFKGSGSGTEYTLTIRGVECADAATYSCQEYADENIFGGGTEVVVK
notes: Rabbit monoclonal IgG expressed in HEK cells; also called 10H3 heavy chain / 10K1 light chain
B7: 17H2/17K1 (antibody, V domains shown)
VH: QSVKESEGGLFKPADTLTLTCTVSGFSLSSYAINWVRQAPGEGLEYIGWISDVGTAYYASWAKSRSTITRNTDENTVTLKMTSLTAADTATYFCAGGDGSYSNYWVSDIWGQGTLVTVSS
VL: AVVLTQTASPVSAPVGGTVTVKCQASQTINSRLAWYQQKQGQPPKLLIYEASTLASGVPSRFKGSGSGTEYTLTIRGVECADAATYSCQEYADENIFGGGTEVVVK
notes: Rabbit monoclonal IgG expressed in HEK cells; Used as a labelled conjugate; also called 17H2 heavy chain / 17K1 light chain
B8: 18H1/18K1 (antibody, V domains shown)
VH: QSVKESEGGLFKPADTLTLTCTVSGFSLSSYAINWVRQAPGEGLEYIGWISDVGTAYYASWAKSRSTITRNTDENTVTLKMTSLTAADTATYFCAGGDGSYSNYWVSDIWGQGTLVTVSS
VL: AVVLTQTASPVSAPVGGTVTVKCQASQTINSRLAWYQQKQGQPPKLLIYEASTLASGVPSRFKGSGSGTEYTLTIRGVECADAATYSCQEYADENIFGGGTEVVVK
notes: Rabbit monoclonal IgG expressed in HEK cells; also called 18H1 heavy chain / 18K1 light chain
B9: 4H1/4K3 (antibody, V domains shown)
VH: QSVKESEGGLFKPADTLTLTCTVSGFSLSSFAINWVRQAPGEGLEYIGWISDVGTAYYASWAKSRSTITRNTDENTATLKMTSLTAADTATYFCAGGDGSYSNYWVSDIWGQGTLVTVSS
VL: AVVLTQTASPVSAPVGGTVTVKCQASQTINNRLAWYQQKQGQPPKLLIYEASKLASGVPSRFKGSGSGTEYTLTIRGVECADAATYSCQEYADENIFGGGTEVVVK
notes: Rabbit monoclonal IgG expressed in HEK cells; Used as a labelled conjugate; also called 4H1 heavy chain / 4K3 light chain
B10: 19H2/19K3 (antibody, V domains shown)
VH: QSVKESEGGLFKPADTLTLTCTVSGFSLSSFAINWVRQAPGEGLEYIGWISDVGTAYYASWAKSRSTITRNADENTVTLKMTSLTAADTATYFCAGGDGSYSNYWVSDIWGQGTLVTVSS
VL: AVVLTQTASPVSAPVGGTVTVKCQASQTINNRLAWYQQKQGQPPKLLIYEASKLASGVPSRFKGSGSGTEYTLTIRGVECADAATYSCQEYADENIFGGGTEVVVK
notes: Rabbit monoclonal IgG expressed in HEK cells; also called 19H2 heavy chain / 19K3 light chain

These binders were tested against T1, C-C motif chemokine 14 (CCL14), human (assay: lateral flow sandwich, CCL14 5 ng/mL; strip antibody, with 4H1/4K3 conjugate).
Procedure: (§1) Various antibodies of the invention were tested for their ability to form sandwich complexes in a lateral flow format. Urine was used as a sample matrix for CCL14 antigen standards. One member of the antibody pair (the “strip” antibody) was immobilized onto a nitrocellulose membrane, and the other member of the antibody pair was prepared as a labeled conjugate with a label that is detectable by the ASTUTE 140® meter system for reading to the test strip.
(§2) To further understand the ability of the antibodies of the present invention to pair, a matrix of various antibodies was analyzed at a single CCL14 concentration of 5 ng/mL in a 100 μL sample volume. The solid phase “strip” antibody was applied to nitrocellulose in 3 μL of a 0.25 μg/mL solution. The conjugate was mixed with the sample volume to a concentration of 10 μg/mL.

Binding result, binds:
B1, B2, B3, B4

Each binder was assayed against T1, C-C motif chemokine 14 (CCL14), human (assay: binding to arrays of CCL14-derived peptides (epitope mapping)).
Procedure: Antibodies were diluted in buffer and applied to the peptide library array. Each antibody tested was optimized for the array by testing different blocking conditions and sample concentration. […] Epitope mapping was precluded in the case of antibodies showing high binding signals throughout the array.

Binding result, binds:
B5, B6

What follows are binders tested against T1, C-C motif chemokine 14 (CCL14), human (assay: lateral flow sandwich, CCL14 5 ng/mL; labelled conjugate, with 2H3/2K1 on the strip).
Procedure: as §1, §2

Binding result, binds:
B7, B8, B9, B10
